Changes are numbered by the printed parent chain. Each block holds one binder with its values, some of them ahead of it.
Assays:
[1] = target: T1, HLA-A2/MAGE-A4 complex, recombinant (HLA-A*02:01 extracellular domain, human b2m, MAGE-A4 peptide 230-239 …) (human, UniProt P04439 25-299 at identity 0.94); P61769 21-119); test: phage display biopanning and screening
T1 construct: also called MAGE-A4 pMHC; MAGE-A4/HLA-A2 complex

[2] = target: T1, HLA-A2/MAGE-A4 complex, recombinant …; test: direct ELISA, plate coated with HLA-A2/MAGE-A4 complex, serial dilution of the antibody
Method: All available hits were evaluated for their ability to bind MAGE-A4/HLA-A2 complex and a control peptide/HLA-A2 complex in a direct binding ELISA assay. […] Briefly, 96 well ELISA plates were coated with purified human MAGE-A4/HLA-A2 complex or control HLA-A2 complex. Serial dilutions of antibody molecules were added to the plate and detected by an anti-kappa light chain-HRP (Invitrogen) or a purified rabbit anti-VHH (QVQ) followed by goat anti-rabbit IgG(H+L) HRP (Southern Biotech). […] 5B.

[3] = target: T2, control peptide 1 (…) displayed by HLA-A2 on T2 cells (human); test: flow cytometry on peptide-pulsed T2 cells, relative MFI (binding over peptide loading)
T2 construct: whole, on cells; also called Ctrl.1
Method: (§1) TAP-deficient T2 cells were pulsed with HLA-A2-restricted peptides (MAGE-A4 or control peptides) and incubated with MAGE-A4 binders followed by fluorophore-labeled specific detection antibodies and analysis by flow cytometry.
(§2) Briefly, T-B hybrid T2 cells were incubated with serum-free RPMI1640 medium containing MAGE-A4 or control peptides. […] Peptide loading efficiency was verified by using the ratio between median fluorescent intensity (MFI) of HLA-A2-binding antibody BB7.2 on peptide loaded T2 cells and MFI of unloaded T2 cells (>1). T2 cells were incubated with each of the specific antibodies followed by fluorophore-labeled detection antibodies (anti-kappa light chain or anti-Flag). The cells were fixed and fluorescence was measured by flow cytometry.

[4] = target: T3, control peptide 2 (…) displayed by HLA-A2 on T2 cells (human); test: as above
T3 construct: whole, on cells; also called Ctrl.2
Method: as §1, §2

[5] = target: T4, control peptide 3 (…) displayed by HLA-A2 on T2 cells (human); test: as above
T4 construct: whole, on cells; also called Ctrl.3
Method: as §1, §2

[6] = target: T1, HLA-A2/MAGE-A4 complex, recombinant …; test: SPR

- binding result [1]: binds
B1: M0752 (VHH)
VHH: EVQLVESGGGLVQPGGSLRLSCAASGFTFSNYGMSWVRQAPGKGLEWVSSIGSGGRITTYLDSVKGRFTISRDNAKNTLYLQMNSLKSEDTAVYYCESGGYRGQGTQVTVSS
notes: Llama-derived VHH

- binding result [1]: binds
B2: M0746 (VHH)
VHH: EVQLVESGGGLVQAGGSLRLSCAASGRTFSNNAMGWFRQGPDQEREFVAAISRSGGGSGGAPLYADSVKGRFTISRDNAKNTMSLSMNSLSPEDTAVYYCAARSLYKVAGSDDLSDYAYWGQGTQVTVSS
notes: Llama-derived VHH

- binding result [2]: binds
B3: M0762 (Fab, V domains shown)
VH: QSVKESGGRLVTPGTPLTLTCTASGFTISSSAISWVRQAPGKGLEYIGIIRSGGTTDYASWAKGRFAISKTSTTVDLKITSPTTEDTATYFCARDPPYITSTYFDLWGQGTLVTVSS
VL: SELVLTQPQSVSGSLGQTVSISCKRARDSVESYDVHWYQQHPGKTPTIVIYKDDQRPSGVPDRFSGSIDSTSNSASLTITGLLAEDEADYFCQSFDGDAVVFGGGTQLTVTG

- EC50 (read off the curve) [2]: ~0.6 nM
B4: M0702 (Fab, V domains shown)
VH: QEQLEESGGGLVTPGTPLTLTCTASGFSLSSYAMIWVRQAPGKGLEWIGTINDGGTAFYANWVKGRFTISRTSTTVDLKMTSPTTEDTATYFCARAYGSNGDVYWGYVNLWGQGTLVTVSS
VL: ELVMTQTPASVSEPVGGTVTIKCQASQSIGSNLAWYQQKPGQPPKLLIYAAANLASGVSSRFKGSRSGTEYTLTISGVQAADAATYYCQQGYSSSNVANVFGGGTELEILR

- binding result [1]: binds
B5: M0749 (VHH)
VHH: EVQLVESGGGSVQPGGSLRLSCAASGFTFSRSTMSWVRQAPGKEIEWVSSVSGSGGVTTYADSVKGRFTISRDNAKNTLYLQMSSLKPEDTAVYYCGNSNARGQGTQVTVSS
notes: Llama-derived VHH

- binding result [2]: binds
B6: M0707 (Fab, V domains shown)
VH: QQQLEESGGGLVTPGTPLTLTCTVSGIDLSSYAMGWVRQAPGKGLEWIGTINDGGSAFYASWVKGRFTISRTSTTVDLKITSPTAEDTATYFCAKTYGTNGDVYWGYFNLWGQGTLVTVSS
VL: ELVMTQTPASVSEPVGGTVTIKCQASQSIGSNLAWYQQKPGQPPKLLIYYESILASGVPSRFSGSGSGTEYTLTISGAQADDAATYYCQQGYSSSNILNAFGGGTEVVVKR

- binding result [3]: no binding
- binding result [4]: binds
- EC50 (read off the curve) [2]: ~0.02 µg/mL
B7: M0742 (VHH)
VHH: EVQLVESGGGLVQPRGSLRLSCAASGFTFSNSGMSWVRQAPGKGLEWVSSISSGGSSTTYLDSVKGRFTISRDNAKNTLYLQMNSLKPEDTAVYYCSWADLRGRGTQVTVSS
notes: Llama-derived VHH; detected with anti-VHH (ELISA) or anti-Flag (flow)

- binding result [2]: binds
B8: M0705 (Fab, V domains shown)
VH: QQQLVESGGRLVTPGTPLTLTCTASGIDLNSNAMSWVRQGPGKGLEWIGDIWSGGYTDYASWAKGRFTISKTSTTVDLKMTSLTAADTATYFCARDRLAGDGVVDYDLWGQGTLVTVSS
VL: ELDMTQTPASVEVAVGGTVTIKCQASQNIYSNLAWYQQKPGQRPKLLIYGASTLASGVPSRFKGSGSGTEYTLTINGVQAADAATYYCQQGFSSSNVDNVFGGGTEVVVKR

- binding result [3]: no binding
- binding result [4]: no binding
- binding result [5]: no binding
- EC50 (read off the curve) [2]: ~0.003 µg/mL
B9: M0743 (VHH)
VHH: EVQLVESGGGLVQPGGSLRLSCVASGFTFSWYTMNWVRQAPGKGFEWVASIGSGGTPTTYRESVKGRFTISRDNAKSTLYLQMNSLKPEDTAVYHCENGQARGQGTQVTVSS
notes: as for B7

- binding result [2]: binds
B10: M0766 (Fab, V domains shown)
VH: PEQLEESGGGLVTPGGVLTLTCTASGFSFSSYGVNWVRQAPGKGLEWIGFIFGDGTTYYANWAKGRFTISKTSTTVDLKMTSPTTEDTATYFCARDGYGGYDYIINLWGQGTLVTVSS
VL: AQVLTQTPASVSAAVGGTVSISCQSSQSVVNNNWLAWYQQKPGQPPKLLIYKASTLESGVPSRFKGSGSGTQFTLTISGVQADDAATYYCLGEFSCSSADCHAFGGGTELEILR

- binding result [1]: binds
B11: M0751 (VHH)
VHH: EVQLVESGGGLVQPGGSLRLSCAASGFSFRLYTMSWVRQAPGKGLEWVSSISSGGGVVTTYADSAKGRFTISRDNDKNTLTLQMNSLKPEDTAVYYCAQGERRGQGTQVTVSS
notes: Llama-derived VHH

- binding result [3]: no binding
- binding result [4]: binds
- binding result [2]: binds
B12: M0739 (VHH)
VHH: EVQLVESGGGSVQPGGSLRLSCAASGFTFSRSTMSWVRQAPGKGLEWVSSISGSGGVTTYTTSVKGRFTISRDNAKNLMYLQMNSLNPEDTAVYYCANGDNRGPGTQVTVSS
notes: as for B7

- binding result [1]: binds
B13: M0750 (VHH)
VHH: MEVQLVESGGGLVQPGGSLRLSCAASGFTFSRYTMSWVRQAPGEGLEWVSSIGSGGGPTTYANSVKGRFTVSRDNAKNTLWLQMNNLKPEDTALYYCQGGGNRGQGAQVTVSS
notes: Llama-derived VHH

- binding result [3]: binds
- binding result [4]: binds
B14: M0709 (Fab, V domains shown)
VH: QSVKESGGRLVTPGTPLTLTCTVSGFSLSNYAMSWVRQAPGKGLEYIGIVSSGGTTYYASWAKGRFTISKTSTTVDLKITSPTTEDTATYFCAKDLYYGPTTYSAFNLWGQGTLVTVSS
VL: SELVLTQPQSVSGSLGQTVSISCKRARDNIEDYYVHWYQQHPGKTPTIVIHKDDQRPSGVPDRFSGSIDSTSNSASLTITGLLAEDEADYFCQSFDNDASPVFGGGTQLTVTG

- binding result [3]: no binding
- binding result [4]: no binding
- binding result [5]: no binding
- EC50 (read off the curve) [2]: ~1 µg/mL
B15: M0763 (Fab, V domains shown)
VH: B14 VH
VL: SELVLTQPASVQVNLGQTVSLTCTADTLSRSYASWYQLKPGQAPVLLIYRDTSRPSGVPDRFSGSSSGNTATLTISGAQAGDEGDYVCATSDGSGSNFQLFGGGTQLTVTG
notes: also called M763; parental M0763 antibody

- binding result [2]: binds
B16: M0708 (Fab, V domains shown)
VH: B14 VH with K4E
VL: B14 VL with D28N, K44R, T45S, D98N, S100N

- binding result [2]: binds
B17: M0710 (Fab, V domains shown)
VH: B14 VH
VL: B14 VL with H41Y, H51Y, D98N, S100N, P101V

- binding result [1]: binds
B18: M0748 (VHH)
VHH: EVQLVESGGGAVQAGGSLRLSCTVSGRPFTKYAWGWFRQPPEKEREFVATSTWDVGSTYYADSAKGRFTISRDNANNIIDLQMNSLKPEDTAVYYCAASNTYSSDITYYAKPMAFNFWGQGTQVTVSS
notes: Llama-derived VHH

- binding result [3]: no binding
- binding result [4]: no binding
- binding result [5]: no binding
- binding result [2]: binds
B19: M0747 (VHH)
VHH: EVQLVESGGGLAQAGGSLRVSCVASGRPFTKYAWGWFRQAPGKAREFVATITWDGGKTDYADSVKGRFTISKDSAENSIYLQMNSLKPEDTAVYYCAADRNYCVGHRCYVRPDDYDYWGQGTQVTVSS
notes: as for B7

- binding result [6]: binds
B20: M1335 (antibody, V domains shown)
VH: EVQLLESGGGSVQPGGSLRLSCTVSGFSLSNYAMSWVRQAPGKGLEWIGIVSSGGTTYYADSVKGRFTISKDTSKNTVYLQMNSLRAEDTASYYCAKDLYYGPSTYFVANLWGQGTSVTVSS
VL: SYELTQPPSVSVSPGQTASITCTADTLSRSYASWYQQKPGQSPVLVIYRDTSRPSGIPERFSGSNSGNTATLTISGTQAMDEADYYCATRPSSGSNFQLFGGGTKLTVL
notes: Variant with the HCDR2 motif SWA replaced by DSV

- binding result [6]: binds
B21: M1342 (antibody, V domains shown)
VH: EVQLLESGGGSVQPGGSLRLSCTVSGFSLSNYAMSWVRQAPGKGLEWIGIVSSGGTTYYADSVKGRFTISKDTSKNTVYLQMNSLRAEDTASYYCAKDLYYGPNTDYSAANLWGQGTSVTVSS
VL: B20 VL with L99A
notes: as for B20
